The text below walks through data of article PMC3217979, “Thermostable Hexameric Form of Eis (Rv2416c) Protein of M. tuberculosis Plays an Important Role for Enhanced Intracellular Survival within Macrophages” (PLoS ONE, 2011).

Data set [1] deals with the molecule itself. In words: SDS-PAGE of unboiled and boiled samples; 10 µg Eis in 1% SDS, 0.125 M Tris pH 6.8, boiled or unboiled; 10% acrylamide gel, 0.1% SDS in Tris/Glycine pH 8.0; Coomassie stain.
Data set [2] concerns the molecule itself. In words: SEC; […], pH 8.0, 25°C; […]. (In general: In gel filtration, larger molecules generally elute earlier.)

B1: Eis protein (Rv2416c) of M. tuberculosis (enzyme)
chain: MTVTLCSPTEDDWPGMFLLAAASFTDFIGPESATAWRTLVPTDGAVVVRDGAGPGSEVVGMALYMDLRLTVPGEVVLPTAGLSFVAVAPTHRRRGLLRAMCAELHRRIADSGYPVAALHASEGGIYGRFGYGPATTLHELTVDRRFARFHADAPGGGLGGSSVRLVRPTEHRGEFEAIYERWRQQVPGGLLRPQVLWDELLAECKAAPGGDRESFALLHPDGYALYRVDRTDLKLARVSELRAVTADAHCALWRALIGLDSMERISIITHPQDPLPHLLTDTRLARTTWRQDGLWLRIMNVPAALEARGYAHEVGEFSTVLEVSDGGRFALKIGDGRARCTPTDAAAEIEMDRDVLGSLYLGAHRASTLAAANRLRTKDSQLLRRLDAAFASDVPVQTAFEF
notes: also called aminoglycoside acetyltransferase Eis; recombinant Eis protein
For orientation: stoichiometry N means the number of molecules, sites or subunits per partner or assembly. As for B1, the “stoichiometry N” value amounted to 3 in data set [1] and 6 in data set [2].
